For experiment [1], the target named is T1, antigenic peptide of amino acid sequence at positions 106-126 of a heavy chain of HLA-G molecules … (human).
T1 construct: Synthesized peptide, coated on ELISA plates at 2 ug/ml; also called immunogen
T1 peptide: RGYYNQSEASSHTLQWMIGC
Kind of experiment: ELISA, peptide coated at 2 ug/ml, antibody titrated; logistic fit. For orientation: ELISA stands for enzyme-linked immunosorbent assay.
Procedure: (§1) The antigen (SEQ No. 17 [sequence]) was diluted with the coating buffer, with the final concentration of 2 μg/ml, 100 ul/well, and placed at 4° C. overnight; washed with the wash buffer twice, blocked with the blocking buffer at 200 ul/well, incubated at 37° C. for 2 hours; then washed once with the wash buffer. The purified antibody was diluted by 2-fold starting from 200-fold (PBS), and the blank control (blank) was PBS, 100 ul/well, and incubated at 37° C. for 1 hour; and then washed 3 times with the wash buffer. The secondary antibody diluted with PBS by 20,000-fold was added, 100 ul/well, and incubated in a 37° C. incubator for 1 hour; taken out and washed 3 times with a wash buffer. Then the color development was performed with a developing solution of 100 ul/well for 5-15 minutes. Then 50 ul of stop solution was added to each well to stop. The absorbance value was measured at dual wavelengths (450, 630), and a chart was drawn for analysis.

Experiment [2] has as its target T1, antigenic peptide of amino acid …. Briefly: ELISA, peptide coated at 2 ug/ml, antibody stock 3.0 mg/mL titrated.
Procedure: as §1
Experiment [3] concerns the target T2, HLA-G3 standard protein (human, UniProt P17693-3 25-154, limits assumed).
T2 construct: Standard protein run on denaturing PAGE for immunoblotting
Kind of experiment: immunoblotting of standard proteins after denaturing PAGE. For orientation: In western blotting, separated proteins are transferred to a membrane and probed.
Procedure: (§2) The denaturing PAGE electrophoresis of the standard proteins of HLA-G isoforms (HLA-G1, HLA-G2, HLA-G3, HLA-G4, HLA-G5, HLA-G6 and HLA-G7) was performed. After semi-dry electroporating, 5% skimmed milk powder was used to block at room temperature for 4 hours, and washed with 0.2% TBS (Tween-20 PBS).

The target in experiment [4] is T3, HLA-G6 standard protein (human, UniProt P17693-6 25-227, limits assumed).
T3 construct: Standard protein run on denaturing PAGE for immunoblotting
The description is as above.
Procedure: as §2

Experiment [5] addresses T4, HLA-G7 standard protein (human, UniProt P17693-7 25-116, limits assumed).
T4 construct: Standard protein run on denaturing PAGE for immunoblotting
The experiment is described as above.
Procedure: as §2

Experiment [6] has as its target T5, HLA-G2 standard protein (human, UniProt P17693-2 25-246, limits assumed).
T5 construct: Standard protein run on denaturing PAGE for immunoblotting
Described as above.
Procedure: as §2

B1: monoclonal antibody (YWHG-4) against HLA-G isoforms (HLA-G1, HLA-G4, HLA-G5) (antibody, V domains shown)
VH: VQLQQSGAEVVRPGTSVKVSCKASGYASTNYLVEWIKQRPGQGLEWIGVINPGSGRIYYSEKFKGKTTLTADKSSSNAYMQLSSLTSDDSAVYFCARHYGNSAWFAYWGQGTLVTVSA
VL: DIVITQDELSLPVSLGDQAAISCRSSQSIVHSNGNTYLEWYLQKPGQSPKLLIYKVSNRFSGVPDRFRGSGSGTDFTLKISRVEAEDLGVYYCFQASHVPYTFGGGTKLEIKR
notes: FITC-labeled in the flow cytometry; also called hybridoma CCTCC NO: 2021204
With B1, the Ka in experiment [1] stood at 9.87e+09 M⁻¹. The “antibody dilution factor corresponding to 1/2 OD value” in experiment [2] was 197000 fold dilution. Also, the binding result in experiment [3], in experiment [4], in experiment [5] and in experiment [6] was “no binding” throughout.

The values are drawn from US20250289892A1 (TAIZHOU ENZE MEDICAL CENTER GROUP, published 2025).
